Data from patent US10053668B2, “Reprogramming bone endothelial cells for use in bone angiogenesis and osteogenesis” (MAX-PLANCK-GESELLSCHAFT ZUR FÖRDERUNG DER WISSENSCHAFTEN …, priority 2013, dated 2018).
Entries after “also recorded” stand apart in the source; their conditions may differ. Counter-ions that a name gives are not always drawn.

Tests used:
[1] = tested on: bone endothelial cells (BECs); assay: DFM treatment of cultured primary bone endothelial cells, qPCR mRNA analysis; assay type: cell-based, mouse; settings: isolated primary bone endothelial cells; DFM 6.25 mg/ml of culture medium, 7 hrs; qPCR vs vehicle
Procedure: Tibiae and femurs from wild-type mice or mice expressing endothelial specific reporters (Flk1 GFP and Cdh5 mtmg mice) or wild-type mice were collected in sterile Ca^2+ and Mg^2+ free PBS, crushed with mortar and pestle, digested with Collagenase A (Sigma) to obtain a single cell suspension. ECs were then MACS sorted using endomucin antibody (cat. no. SC-65495) and Dynabeads sheep anti-Rat IgG (Invitrogen). Sorted ECs were then plated on dishes coated with fibronectin and cultured in endothelial cell growth medium (EBM-2, Clonetics; Lonza) supplemented with EGM-2 SingleQuots (CC-4176, Clonetic; Lonza). At first passage, cells were again MACS sorted with endomucin antibody and plated for culture. Cells were fed every third day and passaged upon confluency. […]
For the analysis of mRNA expression levels in type H or type L endothelium, CD31^hi/Emcn^hi and CD31^lo/Emcn^lo cells were sorted by FACS directly into the lysis buffer of the RNeasy Mini Kit (QIAGEN). […] Quantitative PCR (qPCR) was performed using TaqMan gene expression assays on ABI PRISM 7900HT Sequence Detection System. […]
For the analysis of mRNA expression levels, pure total bone endothelial cells were flow-sorted directly into the lysis buffer of RNeasy Mini Kit (QIAGEN). […] Quantitative PCR (qPCR) was performed using TaqMan gene expression assays on ABI PRISM 7900HT Sequence Detection System. […]

[2] = tested on: type H endothelium (CD31^hi/Emcn^hi vessels); assay: DFM treatment of aged mice, CD31/Osterix immunostaining of tibia sections; assay type: in vivo; settings: aged 64 to 70 week-old mice; DFM i.p. every alternate day, 15 mg/ml per mouse, four weeks; vs vehicle control
Source text: 3-4 weeks old male C57BL/6J mice were used for experiments involving analysis of juvenile mice. For the characterization of changes during aging, 9-11 week-old and 60-70 week-old C57BL/6J males were used as adults and aged mice, respectively. All EC-specific gene deletions were generated using Cdh5(PAC)-CreERT2 transgenic mice, which were interbred with conditional mutants carrying loxP-flanked Hif1α alleles (Hif1α^lox/lox). For experiments, Cdh5(PAC)-CreERT2^T/+ Hif1α^lox/lox were mated with Hif1α^lox/lox females. To induce Cre activity and gene deletion, pups were injected with 500 μg tamoxifen (Sigma, T5648) intraperitoneally everyday from postnatal day (P) 10 to P14. Femurs and tibiae from Cdh5(PAC)-CreERT2^T/+ Hif1α^lox/lox (Hif1α^iΔEC) mutants and Cre-negative (Hif1α^lox/lox) controls were collected on P28 after euthanasia. The same methodology was followed for gene deletion experiments involving conditional Vhl mice. For the specific genetic labeling of metaphyseal vasculature Cdh5(PAC)-CreERT2^T/+ mice were mated with Rosa26-mG/mT reporter line. At P29, Cdh5(PAC)-CreERT2^T/+/R26-mG/mT^d/+ mice received a single dose of 50 μg tamoxifen and were analyzed either 24 hrs (1 day) later or 40 days later. […]
For phenotypic analysis, mutant and littermate control samples were always processed, sectioned, stained, imaged and analysed together at the same conditions and settings. […]

long bone = assay: DFM treatment of aged mice, qPCR of osteoprogenitor and osteoblast markers in long bone; assay type: in vivo, mouse; settings: DFM-treated vs control
Procedure: For DFM treatment, freshly prepared deferoxamine mesylate (Sigma) in water was injected intraperitoneally every alternate day at the dose of 15 mg/ml per mouse over four weeks. For μ-CT analysis, this treatment was continued for five weeks. Animals in the control group were injected with same amount of sterile water.
For the analysis of mRNA expression levels in type H or type L endothelium, CD31^hi/Emcn^hi and CD31^lo/Emcn^lo cells were sorted by FACS directly into the lysis buffer of the RNeasy Mini Kit (QIAGEN). Total RNA was isolated according to manufacturer's protocol. A total of 100 ng RNA per reaction was used to generate cDNA with the iScript cDNA Synthesis System (Bio-Rad). Quantitative PCR (qPCR) was performed using TaqMan gene expression assays on ABI PRISM 7900HT Sequence Detection System. The FAM-conjugated TaqMan probes Tgfb1, Tgfb3, Fgf1, Pdgfa, Pdgfb and Kitl were used along with TaqMan Gene Expression Master Mix (Applied Biosystems). Gene expression assays were normalized to endogenous VIC-conjugated Actb probes as standard. For analysis of mRNA expression levels from whole bones, dissected femurs were immediately crushed finely, digested with collagenase, centrifuged to obtain a pellet, which was then lysed into lysis buffer of RNeasy Mini Kit (QIAGEN). […]

[3] = DFM treatment of aged mice, μ-CT analysis of tibia; assay type: in vivo, mouse; settings: 6 weeks of DFM treatment, compared to aged control mice
Procedure: […] […] Animals in the control group were injected with same amount of sterile water.
Tibiae were collected, and the attached soft tissue was removed thoroughly and fixed in 4% paraformaldehyde. The fixed tibiae were analyzed using micro-CT (μCT 35) and software IPL V5.15 at Scanco Medical AG, Switzerland. A voxel size of 12 μm was chosen in all three spatial dimensions. For each sample, 148 from 232 slices were evaluated covering a total of 1.776 mm at a voltage of 70kVp, intensity 114 μA, integration time 1200 ms.

[4] = tested on: murine mesenchymal progenitors; assay: Osteoblastic differentiation of cultured murine mesenchymal progenitors with Noggin; assay type: cell-based, mouse; settings: in vitro, recombinant Noggin
Rbpj^iΔEC mice [5] = assay: Systemic recombinant Noggin in Rbpj^iΔEC mice, immunostaining of tibia sections; assay type: in vivo, mouse
Source text: For Rbpj deletion in the postnatal vasculature, mice carrying loxP-flanked Rbpj gene (Rbpj^floxed) were interbred with mice expressing endothelial specific tamoxifen inducible CreERT2 i.e. Cdh5(PAC)-CreERT2. The males with genotype Rbpj^floxed/floxed Cdh5(PAC)-CreERT2^T/+ were interbred with Rbpj^floxed/floxed females to generate litters with Rbpj^floxed/floxed Cdh5(PAC)-CreERT2^T/+ (Rbpj^iΔEC) and Rbpj^floxed/floxed (control) genotypes. To induce Cre activity and gene deletion, all the litters were injected with 500 μg tamoxifen (Sigma, T5648) intraperitoneally everyday from P10 to P14. Femur and tibia were collected from these animals for analysis on P28 after euthanasia. The same methodology was followed for all gene deletion experiments of Fbxw7 ^iΔEC, Dll^iΔEC, Dll4^iΔEC, Jag1^iΔEC and Rbpj^iΔOB. For osteoblast specific loss of function experiments, Col1α1-CreERT2 mice (embryos purchased from Institut Clinique de la Souris, France) were interbred with Rbpj^floxed/floxed mice. Further, Rbpj floxed/floxed Col1a1-CreERT2^T/+ males were interbred with Rbpj^floxed/floxed females to generate litters with Rbpj^floxed/floxed Col1aCreERT2^T/+ (Rbpj^iΔOB) and Rbpj^floxed/floxed (control) genotypes.
(§1) For experiments involving Noggin treatment, both control and Rbpj^iΔEC mice were injected intraperitoneally once daily with 500 μg/kg recombinant Noggin (1967-NG, R&D Systems) dissolved in PBS in a volume of 50 μl per dose. Another set of control and Rbpj^iΔEC mice was injected with 50ul PBS for experimental control. All protein injections were done from P15 to P27, after tamoxifen treatment (P10-P14) before the day of analysis (P28).
Freshly dissected bone tissues collected from wild-type mice or from mutants and their control littermates were immediately fixed in ice-cold 4% paraformaldehyde solution for 4 hrs. Decalcification was carried out with 0.5M EDTA at 4° C. with constant shaking and decalcified bones were immersed into 20% sucrose and 2% polyvinylpyrrolidone (PVP) solution for 24 hr. Finally, the tissues were embedded and frozen in 8% gelatin (porcine) in presence of 20% sucrose and 2% PVP. For immunofluorescent stainings and morphological analyses, sections were generated using low-profile blades on a Leica CM3050 cryostat.
For phenotypic analysis, mutant and littermate control samples were always processed, sectioned, stained, imaged and analysed together at the same conditions and settings. For immunostaining, bone sections were air-dried, permeabilised for 10 min in 0.3% Triton X-100, blocked in 5% donkey serum at room temperature for 30 min, and probed with the primary antibodies diluted in 5% donkey serum in PBS for 2 hr at room temperature (RT) or overnight at 4° C.
Following are the details of primary antibodies used: Endomucin (sc-65495, Santa Cruz) used at 1:100 dilution; Pecam1 conjugated to Alexa fluor 488 (FAB3628G, R&D Systems) used at dilution 1:100; Pecam1 (553370, BD Pharmingen) used at 1:100 dilution; Osterix (sc-22536-R, Santa Cruz) used at dilution 1:200; Runx2 (MAB2006, R&D Systems) used at dilution 1:200; alpha SMA-Cy3 (C6198, Sigma) used at dilution 1:100; Hif1α (ab65979, Abcam) used at dilution 1:100; Collagen type 1 (AB675P; Millipore); Osteopontin (AF808, R&D Systems) used at dilution of 1:200, Mct4 (sc-50329 Santa Cruz) used at dilution of 1:100 and Glut1 (07-1401, Millipore) used at dilution of 1:100, NG2 Chondroitin Sulphate Proteoglycan (AB5320, Millipore) used at a dilution of 1:100.

Rbpj^iΔEC mice [6] = assay: Systemic recombinant Noggin in Rbpj^iΔEC mice, calcein double labelling; assay type: in vivo, mouse; settings: Noggin 500 μg/kg i.p. once daily P15 to P27, 7 day interval
Procedure: as §1
Calcein double labeling was performed to calculate mineral apposition rate (MAR).
Mice were given intraperitoneal injections of 10 mg/kg calcein (Sigma, C0875) dissolved in 2% sodium bicarbonate solution at 10th day and 3rd day before euthanasia. Bones were fixed in 4% PFA, embedded in 8% gelatin and 2% PVP and cryosectioned. Single plane images were acquired from the sections using LSM 780 (Carl Zeiss). Mineral Apposition Rate (MAR) is the amount of bone formed during a particular time interval. It is calculated using the distance between the midpoints of two labels divided by time interval (7days).

[7] = Rbpj^iΔEC mice, Noggin 500 μg/kg i.p. once daily P15 to P27, analysis P28, vs saline-treated mutants

## CC(=O)N(O)CCCCCNC(=O)CCC(=O)N(O)CCCCCNC(=O)CCC(=O)N(O)CCCCCN [DFM, deferoxamine mesylate]
[1]
  expression of growth factor mRNAs Pdgfa, Pdgfb, Fgf1, Tgfb1, Tgfb3: induction; also recorded: increase
  transcripts for CD31 and Endomucin: up regulation
[2]
  Osterix-positive cells (osteoprogenitors) in association with type H vessels: induces; also recorded: emergence
  type H endothelium (CD31^hi/Emcn^hi vessels) in long bone: induces; also recorded: substantial expansion
Long bone
  expression levels of mRNAs Sp7, Bglap and lbsp in long bone: significantly increased
[3]
  bone mass (μ-CT): significant increase

B1: Noggin: recombinant Noggin (1967-NG, R&D Systems); secreted protein that binds and antagonises bone morphogenetic proteins (BMPs) (protein, UniProt Q13253 28-232, looked up)
Noggin: QHYLHIRPAPSDNLPLVDLIEHPDPIFDPKEKDLNETLLRSLLGGHYDPGFMATSPPEDRPGGGGGAAGGAEDLAELDQLLRQRPSGAMPSEIKGLEFSEGLAQGKKQRLSKKLRRKLQMWLWSQTFCPVLYAWNDLGSRFWPRYVKVGSCFSKRSCSVPEGMVCKPSKSVHLTVLRWRCQRRGGQRCGWIPIQYPIISECKCSC
[4]
  differentiation of primary mesenchymal cells into osteoblasts: Inhibition; also recorded: inhibits
[4]; 28 days of differentiation
  alkaline phosphatase (ALP) expression: enhanced; also recorded: maintained even after 28 days
  mineral nodule formation (Alizarin staining; osteoblast maturation): supressed; also recorded: delayed
Rbpj^iΔEC mice [5]; Noggin-treated Rbpj^iΔEC tibia sections
  Endomucin staining intensity: increased
Rbpj^iΔEC mice [5]; [7]
  abundance of Runx2+ early osteoprogenitors in metaphysis: increases
  number of Osterix+ (Osx+) cells in metaphysis: reduced; also recorded: reduces the number of Osterix+ cells to control levels
  organization of the Rbpj^iΔEC metaphysis: restores
Rbpj^iΔEC mice [5]; Rbpj^iΔEC mice, Noggin 500 μg/kg i.p. once daily P15 to P27, endomucin immunostaining
  organization of the Rbpj^iΔEC bone vasculature (endothelial column and arch structures): partially restored
Rbpj^iΔEC mice [5]; Rbpj^iΔEC mice, recombinant Noggin vs Saline
  trabecular bone formation (osteopontin immunostaining): partial restoration
Rbpj^iΔEC mice [6]
  bone formation and mineral apposition rate: restored; also recorded: significantly restores
Rbpj^iΔEC mice [6]; listed as noggin
  bone formation and mineral apposition rate: restores
